# “And” between values parts separate entries of the source, which are not always exact repeats. Equal entries are not always repeated.
# B1: TTP-4000: four domain RAGE fusion protein: human RAGE N-terminal sequence (to position 251) linked to human IgG Fc (γ1) without hinge; SEQ ID NO: 34/56 (protein)
# chain: QNITARIGEPLVLKCKGAPKKPPQRLEWKLNTGRTEAWKVLSPQGGGPWDSVARVLPNGSLFLPAVGIQDEGIFRCQAMNRNGKETKSNYRVRVYQIPGKPEIVDSASELTAGVPNKVGTCVSEGSYPAGTLSWHLDGKPLVPNEKGVSVKEQTRRHPETGLFTLQSELMVTPARGGDPRPTFSCSFSPGLPRHRALRTAPIQPRVWEPVPLEEVQLVVEPEGGAVAPPSVFLFPPKPKDTLMISRTPEVTCVVVDVSHEDPEVKFNWYVDGVEVHNAKTKPREEQYNSTYRVVSVLTVLHQDWLNGKEYKCKVSNKALPAPIEKTISKAKGQPREPQVYTLPPSRDELTKNQVSLTCLVKGFYPSDIAVEWESNGQPENNYKTTPPVLDSDGSFFLYSKLTVDKSRWQQGNVFSCSVMHEALHNHYTQKSLSLSPGK
# Tests used:
# [1] = Solubility of TTP-4000 in formulation buffers; assay type: physicochemical; conditions: citrate versus histidine buffers
# Procedure: Formulations containing sodium acetate, sodium citrate, sodium phosphate, sodium succinate, histidine, and sodium chloride were tested along with sucrose and mannitol. Various pH's between 5.5 and 7.0 were also evaluated.
# Based on the solubility of the RAGE fusion protein in formulations containing one or more of sodium citrate, histidine, sucrose, mannitol, and Tween 80 at a pH of 7.0 or less, formulations containing one or more of these buffers, lyoprotectants, or surfactant were selected for further study.
# [2] = Pharmacokinetic profile of TTP-4000 after IV injection; assay type: in vivo, monkeys; conditions: single IV bolus 5 mg/kg; once TTP-4000 has saturated its ligands; plasma ELISA
# Procedure: Following collection, the tubes were placed on wet ice (maximum 30 minutes) until centrifugation under refrigeration (at 2 to 8° C.) at 1500×g for 15 minutes. Each harvested plasma sample was then stored frozen (−70° C.±10° C.) until assayed for RAGE polypeptide using an ELISA at various time-points following the injection, as described in Example 6.
# In FIG. 12 each curve represents a different animal under the same experimental conditions.
# Initially, 50 uL of the RAGE specific monoclonal antibody 1HB1011 at a concentration of 10 ug/mL in 1× PBS pH 7.3 is coated on plates via overnight incubation. When ready for use, plates are washed three times with 300 uL of 1× Imidazole-Tween wash buffer and blocked with 1% BSA. […] The samples are allowed to incubate at room temperature for one hour. After incubation, the plates are plates are washed three times. A Goat Anti-human IgG1 1 (Sigma A3312) AP conjugate in 1×PBS with 1% BSA is added and allowed to incubate at room temperature for 1 hour. The plates are washed three times. Color was elucidated with paranitrophenylphosphate.
# [3] = biological target: T1, S100b (S100) (Homo sapiens, UniProt P04271); experiment: In vitro ligand binding ELISA, immobilized S100b; conditions: ligand 5 micrograms per well; fusion protein at increasing dilutions, 37° C. one hour
# T1 sequence (P04271 1-92): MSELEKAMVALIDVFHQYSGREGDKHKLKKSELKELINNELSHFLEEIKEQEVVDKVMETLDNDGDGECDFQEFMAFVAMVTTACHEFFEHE
# Procedure: For example, the RAGE fusion protein may be used in a binding assay to identify potential RAGE ligands. In one example embodiment of such a binding assay, a known RAGE ligand may coated onto a solid substrate (e.g., Maxisorb plates) at a concentration of about 5 micrograms per well, where each well contains a total volume of about 100 microliters (4). The plates may be incubated at 4° C. overnight to allow the ligand to absorb or bind to the substrate. Alternatively, shorter incubation periods at higher temperature (e.g., room temperature) may be used. […] The RAGE fusion protein bound to the immobilized ligand may be detected in a variety of ways. […] The bound complex may be detected by adding the alkaline phosphatase substrate, para-nitrophenylphosphate (PNPP), and measuring conversion of PNPP to para-nitrophenol (PNP) as an increase in absorbance at 405 nm. […] In the absence of ligand (i.e., coating with only BSA) there was no increase in absorbance. […] Binding was detected by the addition of an immunodetection complex containing a monoclonal mouse anti-human IgG1 diluted 1:11,000 to a final assay concentration (FAC) of 21 ng/100 μL, a biotinylated goat anti-mouse IgG diluted 1:500, to a FAC of […], and an avidin-linked alkaline phosphatase. […]
# [4] = system: recurrent diabetes in syngeneic NOD transplant model; experiment: Syngeneic islet transplantation in NOD mice; assay type: in vivo
# Description: Spontaneous autoimmune non-obese diabetic mice (NOD/LtJ) (12-25 weeks old) served as recipients for islet cells, while young pre-diabetic NOD/LtJ mice (6-7 weeks old) served as donors in syngeneic islet transplantation. Islets for transplantation were isolated as described above in Section A (Allogeneic Islet Transplantation). Diabetic NOD/LtJ mice received islet grafts within 2 days of the diagnosis of diabetes. 500-600 freshly isolated islets (approximately 550 islet equivalents) from donor mice were picked up with an infusion set and transplanted into the subcapular space of the right kidney. Test compounds were administered as soon as the islets were transplanted and continued for approximately 8 weeks. […] Islet graft function was monitored by serial blood glucose measurements daily for the first 2 weeks after islet transplantation, followed by every other day thereafter. Reversal of diabetes was defined as blood glucose less than 200 mg/dl on two consecutive measurements. Percentage graft loss was determined when blood glucose exceeded 250 mg/dl on two consecutive measurements.
# [5] = system: Fc receptor; experiment: Fc receptor activation: TNF-α secretion from THP-1 cells; assay type: cell-based
# Description: Fc stimulation results in TNF-α secretion.
# [6] = 300 ug LD + 100 ug qod ip, syngeneic islets in NOD mice
molecule,measurement,setting,value
B1,"solubility in formulations, in words",[1],may be more soluble in formulations containing histidine
same,terminal half-life,[2],greater than 300 hours
same,binding to immobilized S100b (increase in absorbance at 405 nm),[3],specifically interact
same,day of graft loss for each animal,[4]; [6],40 day and 43 day and 36 day and 45 day and 44 day and 38 day (2×) and 35 day
same,"day of graft loss, Mean",[4]; [6],39.875 days
same,"time before detection of graft failure, in words",[4]; versus animals not treated at all,increase in the time before detection of graft failure
same,stimulation of TNF-α release from cells,[5]; conditions where human IgG stimulation of TNF-α release is detected,does not stimulate TNF-α release
same,TNF generated,"[5]; well precoated with 10 ug/well heat aggregated protein, THP-1 cells, 24 hours",less than 2 ng/well

# Source: patent US8344120B2, “Nucleic acid molecules encoding rage fusion proteins” (TransTech Pharma, Inc., priority 2006, dated 2013)
